A word on the Km: it is the concentration of substrate that gives half-maximal velocity. Usually Vmax stands for the top rate of the reaction or transport when substrate is in excess. The kcat is the maximal rate divided by the concentration of active sites. Broadly, the kcat/Km is the second-order rate constant that governs catalysis at low substrate concentration.

The record followed here is paper PMC10891947, “Gene Expression of Ethanol and Acetate Metabolic Pathways in the Acinetobacter baumannii EmaSR Regulon” (Microorganisms, 2024).

Several values for one entry are separate records, joined by “and”; a condition that tells them apart may be missing. Equal values may be shown once.

Substrate in data set [1]: CC(=O)O
The data set is described as follows: purified protein. The settings on record: pH 8.0 potassium phosphate buffer, co-substrate succinyl-CoA, one experiment.

Substrate in data set [2]: CC(C)(COP(=O)(O)OP(=O)(O)OC[C@H]1O[C@@H](n2cnc3c(N)ncnc32)[C@H](O)[C@@H]1OP(=O)(O)O)[C@@H](O)C(=O)NCCC(=O)NCCSC(=O)CCC(=O)O
Kind of data set: purified protein. The data set is classed as biochemical, Acinetobacter baumannii. As to conditions: pH 8.0 potassium phosphate buffer, co-substrate acetate, one experiment.

B1: DJ41_2796 (Acinetobacter baumannii ATCC 19606 = CIP 70.34 = JCM 6841) (protein)
chain: MSLSRIRLASLHDKVISAEQAAQFIENGMTVGMSGFTRAGEAKAVPQALVELAKKNPLKITLITGASLGNDLDKQLTEAGVLSRRMPFQVDNTLRRAINNGEVMFIDQHLSETVEQMRNQQLKRPDVAVIEAIAITEDGGIIPTTSVGNSASFAIFAEKVIVEINTSLSESFEGLHDIYIPTYRPTRTPIPLTKVDERIGTTAIQIDPSRIVGIVFNDTHDSPSTVTPPDDETQGIANHLIAFFEKEVAEGRLPKNLGPLQAGIGSIANAVLTGLKDSNFEDLIMYSEVLQDCTFELIDAGKMKFASGSSITLSAKCGEKVFGNIEAYKDKLVLRPQEISNHPELVRRLGIIGINTALEFDIYGNVNSTHVCGTKMMNGIGGSGDFARNAHLAIFVTKSIAKGGDISSIVPMVSHVDHSEHDVDILVTEQGLADLRGLAPRERARAIIDNCVHPLYRDALNDYFDRACAKGGHTPHLLREALSWHANFEETGQMLQPTPVAKSA
Turning to B1, in data set [1], the Km is 14.74 mM and 39 mM; the Vmax was 0.0335 µmol/min and 0.0415 µmol/min; the kcat was 6.7 s⁻¹ and 8.31 s⁻¹; the kcat/Km was 455 M⁻¹ s⁻¹ and 213 M⁻¹ s⁻¹. In data set [2], the Km is 0.3418 mM, the Vmax is 0.035 µmol/min, the kcat amounted to 6.99 s⁻¹ and the kcat/Km came out at 20500 M⁻¹ s⁻¹.
